From article PMC7682986, “Talin-activated vinculin interacts with branched actin networks to initiate bundles” (eLife, 2020)

Target: T1, full-length human vinculin (human, UniProt P18206-2 1-1066, Alexa Fluor 488 maleimide on cysteines (30% Alexa488-labeled monomers in the TIRFM assay on patterns))
T1 construct: human vinculin, cDNA isolated from the human A431 cell line, PCR product of 1066 amino acids; FX cloning and 3C cleavage may leave a few extra residues at the ends; also called VCL; source: Sf9 insect cells (baculovirus), purified (Ni IMAC, 3C protease cleavage on the resin, Superdex 200); not shown: GFP, C-terminal, cleaved; 10xHis, C-terminal, cleaved
T1 sequence (looked up): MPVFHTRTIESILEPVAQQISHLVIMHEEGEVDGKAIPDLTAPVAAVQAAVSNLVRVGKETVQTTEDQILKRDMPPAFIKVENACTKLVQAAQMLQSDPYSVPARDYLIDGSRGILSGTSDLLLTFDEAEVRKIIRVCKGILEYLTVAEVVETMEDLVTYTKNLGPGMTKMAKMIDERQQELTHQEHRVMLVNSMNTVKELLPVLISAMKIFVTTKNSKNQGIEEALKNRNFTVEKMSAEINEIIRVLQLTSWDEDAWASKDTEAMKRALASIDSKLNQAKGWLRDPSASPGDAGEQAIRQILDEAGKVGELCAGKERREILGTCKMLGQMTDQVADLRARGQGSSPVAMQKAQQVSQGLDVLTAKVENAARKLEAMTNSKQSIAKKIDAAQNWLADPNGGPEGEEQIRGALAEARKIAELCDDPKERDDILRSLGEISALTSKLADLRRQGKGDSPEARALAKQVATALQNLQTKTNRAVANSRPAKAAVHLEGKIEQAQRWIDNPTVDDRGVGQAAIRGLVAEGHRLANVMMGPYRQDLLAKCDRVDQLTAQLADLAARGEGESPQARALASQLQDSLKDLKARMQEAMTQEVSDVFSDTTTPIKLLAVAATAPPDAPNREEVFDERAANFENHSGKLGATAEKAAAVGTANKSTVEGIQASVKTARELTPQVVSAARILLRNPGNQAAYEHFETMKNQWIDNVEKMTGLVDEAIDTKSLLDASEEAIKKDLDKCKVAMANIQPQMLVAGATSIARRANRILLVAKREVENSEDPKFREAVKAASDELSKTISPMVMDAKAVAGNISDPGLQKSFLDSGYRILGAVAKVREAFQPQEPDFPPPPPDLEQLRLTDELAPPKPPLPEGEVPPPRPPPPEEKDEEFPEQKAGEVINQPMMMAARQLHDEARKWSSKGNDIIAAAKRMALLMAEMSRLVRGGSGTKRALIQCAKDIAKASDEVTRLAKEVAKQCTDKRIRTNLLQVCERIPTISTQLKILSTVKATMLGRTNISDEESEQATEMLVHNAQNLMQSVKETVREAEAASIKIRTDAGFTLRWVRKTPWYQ
Experiment: TIRF microscopy on protein-coated micropatterns; micropatterns coated with 0.4 µM GST-talin VBS1 (control patterns with BSA); flow of 300 nM inactive vinculin (Alexa488), 0.3 µM actin, Arp2/3 complex and 80 nM WAVE WA; 20 mM Hepes pH 7.0, 40 mM KCl, 0.4% methylcellulose, 0.2% BSA
Conditions: both partners purified

binding result: binds
B1: GST-talin VBS1 (human talin 1 vinculin-binding site 1, residues 482–636) (domain or fragment, UniProt Q9Y490 482-636, looked up)
chain: RGHMPPLTSAQQALTGTINSSMQAVQAAQATLDDFDTLPPLGQDAASKAWRKNKMDESKHEIHSQVDAITAGTASVVNLTAGDPAETDYTAVGCAVTTISSNLTEMSRGVKLLAALLEDEGGSGRPLLQAAKGLAGAVSELLRSAQPASAEPRQN
notes: construct from C; Le Clainche; Coated on micropatterns as GST-talin VBS1; also called GST-VBS1; VBS1-GST; source: E. coli BL21 (DE3)pLysS, purified (glutathione-Sepharose)
